Results from US20260102505A1, “ANTI-CD45-IGN ANTIBODY DRUG CONJUGATES AND USES THEREOF” (Vor Biopharma Inc., priority 2022, published 2026).
Substitutions are numbered along the chain they refer to.

B1: Ab2: human anti-CD45 antibody, VH SEQ ID NO:11, VL SEQ ID NO:15 (antibody, V domains shown)
VH: EVQLVESGGGLVQPGGSLRLSCAASGFTFEAYSMNWVRQAPGKGLEWVSYISLSGATIHYADSVKGRFTISRDNAKNSLYLQMNSLRAEDTAVYYCARGGQYYYDSSDYGEVAFDIWGQGTMVTVSS
VL: DIVMTQSPLSLPVTPGEPASISCRSSQSLVSNGYNYLDWYLQKPGQSPQLLIYFGSSRASGVPDRFSGSGSGTDFTLKISRVEAEDVGVYYCMQRRRTPWSFGGGTKVEIK
B2: Ab3: human anti-CD45 antibody, VH SEQ ID NO:21, VL SEQ ID NO:25 (antibody, V domains shown)
VH: B1 VH with E1Q, Q13K, E30G, A31G, L53I, H59T
VL: DIVMTQSPLSLPVTPGEPASISCRSSQSLVSNGYNYLDWYLQKPGQSPQLLIYFGSSRASGVPDRFSGSGSGTDFTLKISRVEAEDVGVYYCMQRRRTPPFTFGGGTKVEIK
B3: Ab4: human anti-CD45 antibody, VH SEQ ID NO:31, VL SEQ ID NO:35 (antibody, V domains shown)
VH: B1 VH with D105T
VL: B1 VL
B4: Ab6: human anti-CD45 antibody, VH SEQ ID NO:51, VL SEQ ID NO:55 (antibody, V domains shown)
VH: B1 VH with D105T, M122L
VL: B1 VL with M4L, N32S
B5: Ab7: human anti-CD45 antibody, VH SEQ ID NO:61, VL SEQ ID NO:65 (antibody, V domains shown)
VH: B1 VH with E1Q, Q13K, E30G, A31G, L53I, H59T
VL: B2 VL with N32S
B6: AbA: humanized and affinity matured anti-CD45 antibody, VH SEQ ID NO:71, VL SEQ ID NO:75 (antibody, V domains shown)
VH: EVQLLESGGGLVQPGGSLRLSCAASGFTFNNYWMTWVRQAPGKGLEWVSSISSSGGSIYYPDRVKGRFTISRDNSKNTLYLQMNSLRAEDTAVYYCARDERWAGAMDAWGQGTTVTVSS
VL: DIQMTQSPSSLSASVGDRVTITCKASQNINKNLDWYQQKPGKAPKLLIYETNNLQTGVPSRFSGSGSGTDFTLTISSLQPEDFATYYCYQHNSRFTFGQGTKLEIK
B7: AbB: humanized and affinity matured anti-CD45 antibody, VH SEQ ID NO:81, VL SEQ ID NO:85 (antibody, V domains shown)
VH: EVQLVESGGGLVQPGGSLRLSCAASGFTFTNFWMAWIRQAPGKGLEWVASISSSGGSIYYPDSVKDRFTISRDNSKNTLYLQMNSLRAEDTAVYYCVKFHHYSGGGDAWGQGTLVTVSS
VL: DIQMTQSPSSLSASVGDRVTITCKASQNINKYLDWYQQKPGKAPKLLIHYTNNLHTGIPSRFSGSGSGTDYTLTISSLQPEDFATYYCLQHSSRWTFGGGTKVEIK
B8: AbC: humanized and affinity matured anti-CD45 antibody, VH SEQ ID NO:91, VL SEQ ID NO:95 (antibody, V domains shown)
VH: EVQLVESGGGLVQPGGSLRLSCAASGFTFNNYWMTWVRQAPGKGLEWVSSISSSGGSIYYPDSVKDRFTISRDNAKNSLYLQMNSLRAEDMAVYYCARLYYYDGGGDAWGQGTLVTVSS
VL: B7 VL with D1G, N28D, H49Y, Y50N, S92I

Each molecule was assayed on human CD45, cyno CD45 and rhesus CD45 (assay: CD45 binding / species cross-reactivity of antibodies).
Set-up: species or system cynomolgus

| Molecule | cross-reactivity with CD45 of species (in words) |
| --- | --- |
| B1 | cross reacts with human CD45, cyno CD45 and rhesus CD45 |
| B2 | cross reacts with human CD45, cyno CD45 and rhesus CD45 |
| B3 | cross reacts with human CD45, cyno CD45 and rhesus CD45 |
| B4 | cross reacts with human CD45, cyno CD45 and rhesus CD45 |
| B5 | cross reacts with human CD45, cyno CD45 and rhesus CD45 |
| B6 | cross reacts with human CD45, cyno CD45 and rhesus CD45 |
| B7 | cross reacts with human CD45, cyno CD45 and rhesus CD45 |
| B8 | cross reacts with human CD45, cyno CD45 and rhesus CD45 |
